Data on five molecules can be found in patent publication US20230375530A1, “HUMAN BLOOD-BRAIN BARRIER MODEL FOR IMMUNOLOGICAL STUDIES” (WISCONSIN ALUMNI RESEARCH FOUNDATION, priority 2020, published 2023).

The subject of data set [1] is EECM-BMEC-like cell monolayers. Type of data set: in vitro ADME, human. On the procedure: EPCs purified as described above were plated on collagen IV (10 μg/ml)-coated plates in hECSR medium in the presence of 5 μM ROCK inhibitor Y-27632 of 10′000-20′000/cm^2 as described before (33). Twenty-four hours later, medium was changed to hECSR without ROCK inhibitor and then medium was changed every 2 days. Once the cells reached 100% confluency (FIG. 3B (i)), the cells were passaged using Accutase (Innovative Cell Technologies, San Diego, CA, USA). In detail, medium was removed and 1 ml of Accutase was added to the 6-well plate and cells were carefully observed under an inverted microscope (Zeiss Axiovert 25). Once endothelial cells started to become round (FIG. 3B (ii)), the endothelial cells were physically detached by tapping the 6-well plate (FIG. 3B (iii)). […] These cell densities were found optimal for achieving closed monolayers. Coating with collagen IV/fibronectin for Transwell filters was chosen as it was previously shown to be optimal for growing primary BMECs and for UMM-BMEC-like cells. […]
Bovine pericytes (15), the human brain pericyte cell line (HBPCT) (34), the human astrocyte cell line (hAST) (35), and hiPSC-derived astrocytes (iPS_AC) (29) were obtained and maintained as previously described. […] Transendothelial electrical resistance (TEER) was measured using a Volt-Ohm-Meter (Millicell ERS-2, MERSSTX01-electrode). […]

Data set [2] concerns UMM- and DMM-differentiated BMEC-like cells.
Description: Unconditioned medium method (UMM) (14, 16) and defined medium method (DMM) (17) were slightly modified and used to differentiate brain microvascular endothelial-like cells (BMEC-like cells). In brief, hiPSCs were seeded onto a Matrigel-coated plate in mTeSR1 supplemented with 10 μM ROCK inhibitor Y-27632 (Selleckchem, Houston, TX, USA) for 24 hours (day −3 or day −4). […] At day 0, cells were induced to differentiate using specific medium for each method: For UMM, medium was switched to unconditioned medium (DMEM/F12 with 20% Knockout serum replacement, 1× non-essential amino acids, 0.5× Glutamax, and 0.1 mM β-mercaptoethanol) and changed every day for 6 days. For DMM, medium was switched to DeSR1 (DMEM/F12 with 1× non-essential amino acids, 0.5× Glutamax, and 0.1 mM β-mercaptoethanol) supplemented with 6 μM CHIR99021 (Selleckchem, Houston, TX, USA) and cultured for 24 hours. […]
(§1) Permeability of EC monolayers was assessed by measuring the clearance of sodium fluorescein (NaFl, 376.3 Da, Sigma-Aldrich) as previously described (16). […] Medium samples containing fluorescent tracer that had diffused across the monolayers were collected from the bottom well every 15 min for a total of 60 min, and fluorescence intensity was measured in a Tecan Infinite M1000 multi-well reader (Tecan Trading AG, Männedorf, Switzerland). […]
In data set [3] the test system is hPSC-derived endothelial progenitors (Passage 1 ECs). The data set can be described thus: Immunocytochemistry of Passage 1 ECs treated with Wnt ligands, CHIR or conditioned media. Type of data set: cell-based, human. The note with it: for fraction of GLUT-1+ ECs vs control: Passage 1 ECs, 6 days, Wnt3a 20 ng/mL, Wnt7a 50 ng/mL, Wnt7b 50 ng/mL; for EC purity (proportion of ECs compared to SMLCs): Passage 1 cultures, 6 days treatment. On the procedure: Collagen IV (Sigma-Aldrich) was dissolved in 0.5 mg/mL acetic acid to a final concentration of 1 mg/mL. Collagen IV-coated plates were prepared by diluting a volume of this stock solution 1:100 in water, adding the resulting solution to tissue culture plates, or #1.5 glass bottom plates (Cellvis, Sunnyvale, CA) for cells intended for confocal imaging (1 mL per well for 6-well plates, 0.5 mL per well for 12-well plates, 0.25 mL per well for 24-well plates), and incubating the plates for 1 h at RT. Collagen IV coating solution was removed and EPCs obtained as described above were suspended in hECSR medium and plated at approximately 3×10^4 cells/cm^2. In some experiments, cells were suspended in NR-CM or Astro-CM. In some experiments, ligands and small molecules were added to hECSR medium: CHIR 99021 (Tocris) was used at 4 μM except where indicated; DMSO (Sigma-Aldrich) was used as a vehicle control for CHIR; Wnt3a (R&D Systems) was used at 20 ng/mL; Wnt7a (Peprotech, Rocky Hill, NJ) was used at 50 ng/mL; Wnt7b (Abnova, Tapei, Taiwan) was used at 50 ng/mL; R-spondin 1 (Rspo1; Peprotech) was used at 50 ng/mL; doxycycline was used at 1, 2, or 4 μg/mL. The hECSR medium or CM, including any ligands or small molecules, was replaced every other day until confluent (typically 6 days). We denote this time point “Passage 1.”
Immunocytochemistry was performed in 24-well plates. Cells were washed once with 500 μL DPBS and fixed with 500 μL cold (−20° C.) methanol for 5 min, except cells intended for calponin/SM22a and CD31/Ki67 detection, which were fixed with 500 μL of 4% paraformaldehyde for 15 min. Cells were washed three times with 500 μL DPBS and blocked in 150 μL DPBS supplemented with 10% goat serum (Life Technologies) for 1 h at room temperature, except cells intended for calponin/SM22α detection, which were blocked and permeabilized in DPBS supplemented with 3% BSA and 0.1% Triton X-100, or cells intended for CD31/Ki67 detection, which were blocked and permeabilized in DPBS supplemented with 5% non-fat dry milk and 0.4% Triton X-100. Primary antibodies diluted in 150 μL of the above blocking solutions (see Table 6 for antibody information) were added to cells and incubated overnight at 4° C. on a rocking platform. Cells were washed three times with 500 μL DPBS. Secondary antibodies diluted in 150 μL of the above blocking solutions (see Table 6 for antibody information) were added to cells and incubated for 1 h at room temperature on a rocking platform, protected from light. Cells were washed three times with 500 μL DPBS, followed by 5 min incubation with 500 μL DPBS plus 4 μM Hoechst 33342 (Life Technologies). Images were acquired using an Eclipse Ti2-E epifluorescence microscope (Nikon, Tokyo, Japan) with a 20× objective or an A1R-Si+ confocal microscope (Nikon) with a 100× oil objective. Confocal images were acquired with 1 μm slice spacing.
Images were analyzed using FIJI (ImageJ) software. For epifluorescence images, 5 fields (20×) were analyzed per well, with 3-4 wells per treatment condition. For quantification of cell number, EC colonies were manually outlined, and the Analyze Particles function was used to estimate the number of nuclei within the EC colonies. Nuclei outside the EC colonies were manually counted. EC purity (% EC) was calculated as the number of nuclei within EC colonies relative to total nuclei. To estimate % GLUT-1^+ ECs, cells within the EC colonies with membrane-localized GLUT-1 immunoreactivity (e.g., arrowheads in FIG. 24B) were manually counted. To estimate % Ki67^+ ECs, cells within the EC colonies with at least one nuclear-localized Ki67 punctum were manually counted. For quantification of fluorescence intensity in epifluorescence images, EC colonies were manually outlined, and the Measure function was used to obtain the mean fluorescence intensity for each image channel (fluorophore). A cell-free area of the plate was similarly quantified for background subtraction. […]

Description for hiPSC-derived naïve ECs: CD34^+ CD31^+ endothelial progenitor cells (EPCs) were differentiated from hiPSCs as described (32, 33). In brief, hiPSCs were seeded onto a Matrigel-coated plate in mTeSR1 supplemented with 5 μM ROCK inhibitor Y-27632 for 24 hours (day −3). Seeding densities at day −3 were optimized between 16′000/cm^2 to 132′000/cm^2 depending on donor and passage in order to obtain high number of CD34^+ CD31^+ EPCs. At day 0 and day 1, medium was changed to LaSR basal medium (Advanced DMEM/F12, 2.5 mM GlutaMAX, and 60 μg/ml ascorbic acid) supplemented with 8 μM CHIR99021. At day 2, medium was switched to LaSR basal medium and changed every day for another 3 days. […] Purified EPCs were seeded onto collagen IV/fibronectin-coated Transwell filters at a density of 100′000/cm^2 or collagen-IV (10 μg/ml)-coated culture plates at a density of 10′000-20′000/cm^2 in hECSR medium and used for assay or further extended EC culture.
as §1

Regarding `O=C([O-])c1ccccc1-c1c2ccc(=O)cc-2oc2cc([O-])ccc12.[Na+].[Na+]` [sodium fluorescein], in the data set on hiPSC-derived naïve ECs, the “PeNaFl, permeability to sodium fluorescein” value is given as 2-10 ×10^−3 cm/min. For the same molecule, in data set [1], the “lower permeability compared to naïve ECs” value is reported as approximately 10 fold. The “permeability to sodium fluorescein” value in data set [2] is “less than 0.6 ×10^−4 cm/min”.

B1: Wnt3a: ligand widely used to activate canonical Wnt/β-catenin signaling (R&D Systems) (protein, UniProt P56704 19-352, looked up)
Protein Wnt-3a: SYPIWWSLAVGPQYSSLGSQPILCASIPGLVPKQLRFCRNYVEIMPSVAEGIKIGIQECQHQFRGRRWNCTTVHDSLAIFGPVLDKATRESAFVHAIASAGVAFAVTRSCAEGTAAICGCSSRHQGSPGKGWKWGGCSEDIEFGGMVSREFADARENRPDARSAMNRHNNEAGRQAIASHMHLKCKCHGLSGSCEVKTCWWSQPDFRAIGDFLKDKYDSASEMVVEKHRESRGWVETLRPRYTYFKVPTERDLVYYEASPNFCEPNPETGSFGTRDRTCNVSSHGIDGCDLLCCGRGHNARAERRREKCRCVFHWCCYVSCQECTRVYDVHTCK
On to B1, for which, in data set [3], the “fraction of GLUT-1+ ECs vs control” value is recorded as “significant increase” and the “EC purity (proportion of ECs compared to SMLCs)” value is given as “not Wnt3a”.

B2: Rspo1: potentiator of Wnt signaling (protein, UniProt Q2MKA7 21-263, looked up)
R-spondin-1: SRGIKGKRQRRISAEGSQACAKGCELCSEVNGCLKCSPKLFILLERNDIRQVGVCLPSCPPGYFDARNPDMNKCIKCKIEHCEACFSHNFCTKCKEGLYLHKGRCYPACPEGSSAANGTMECSSPAQCEMSEWSPWGPCSKKQQLCGFRRGSEERTRRVLHAPVGDHAACSDTKETRRCTVRRVPCPEGQKRRKGGQGRRENANRNLARKESKEAGAGSRRRKGQQQQQQQGTVGPLTSAGPA
In the case of B2, the “EC purity or expression of GLUT-1, claudin-5 or caveolin-1” value in data set [3] (Rspo1 50 ng/mL in combination with Wnt ligands) was “did not affect”.

B3: Wnt7a: recombinant Wnt ligand (Peprotech) (protein, UniProt O00755 32-349, looked up)
Protein Wnt-7a: LGASIICNKIPGLAPRQRAICQSRPDAIIVIGEGSQMGLDECQFQFRNGRWNCSALGERTVFGKELKVGSREAAFTYAIIAAGVAHAITAACTQGNLSDCGCDKEKQGQYHRDEGWKWGGCSADIRYGIGFAKVFVDAREIKQNARTLMNLHNNEAGRKILEENMKLECKCHGVSGSCTTKTCWTTLPQFRELGYVLKDKYNEAVHVEPVRASRNKRPTFLKIKKPLSYRKPMDTDLVYIEKSPNYCEEDPVTGSVGTQGRACNKTAPQASGCDLMCCGRGYNTHQYARVWQCNCKFHWCCYVKCNTCSERTEMYTCK
Take B3: in data set [3], the “fraction of GLUT-1+ ECs vs control” value is reported as “slightly increased” and the “EC purity (proportion of ECs compared to SMLCs)” value is given as “increased the proportion of ECs”.

B4: Wnt7b: recombinant Wnt ligand (Abnova) (protein, UniProt P56706 25-349, looked up)
Protein Wnt-7b: ALSSVVALGANIICNKIPGLAPRQRAICQSRPDAIIVIGEGAQMGINECQYQFRFGRWNCSALGEKTVFGQELRVGSREAAFTYAITAAGVAHAVTAACSQGNLSNCGCDREKQGYYNQAEGWKWGGCSADVRYGIDFSRRFVDAREIKKNARRLMNLHNNEAGRKVLEDRMQLECKCHGVSGSCTTKTCWTTLPKFREVGHLLKEKYNAAVQVEVVRASRLRQPTFLRIKQLRSYQKPMETDLVYIEKSPNYCEEDAATGSVGTQGRLCNRTSPGADGCDTMCCGRGYNTHQYTKVWQCNCKFHWCCFVKCNTCSERTEVFTCK
Consider B4, for which the “fraction of GLUT-1+ ECs vs control” value in data set [3] is on record as “not Wnt7b alone”.
